Experimental data from the Human Domainome abundance scans (Beltran et al. 2025).
± gives the uncertainty stated by the source.

B1: Nucleolar transcription factor 1, residues 408 to 469; numbered along this chain, P17480 (parent)
chain: KRPVSAMFIFSEEKRRQLQEERPELSESELTRLLARMWNDLSEKKKAKYKAREAALKAQSER

Variants of: B1
Test: abundance fitness (aPCA) (normalised: wild type 0, dead -1); higher = more abundant; growth selection in yeast, the domain comes from the species named
Conditions: Homo sapiens

Abundance fitness of substitutions, site by site:
R52: Q 0.002 ± 0.06; G -0.193 ± 0.048; A -0.17 ± 0.066; W -0.234 ± 0.077; I -0.134 ± 0.11; N -0.277 ± 0.11; S -0.137 ± 0.046; T -0.042 ± 0.079; D -0.106 ± 0.14; P -0.254 ± 0.064; F -0.209 ± 0.1; Y -0.324 ± 0.11; L -0.114 ± 0.045; V -0.127 ± 0.058; K 0.014 ± 0.1; C -0.111 ± 0.078; M -0.092 ± 0.061; H -0.1 ± 0.099; E -0.026 ± 0.073
K45: I -0.07 ± 0.063; V -0.097 ± 0.042; T -0.067 ± 0.042; Y -0.181 ± 0.094; E 0.067 ± 0.055; G -0.009 ± 0.044; R -0.061 ± 0.038; Q 0.014 ± 0.058; H -0.099 ± 0.11; P -0.435 ± 0.069; C -0.002 ± 0.062; S -0.023 ± 0.04; F -0.105 ± 0.088; W -0.232 ± 0.047; M -0.039 ± 0.049; N -0.064 ± 0.072; A -0.048 ± 0.052; D -0.052 ± 0.097; L -0.131 ± 0.054
Y49: W -0.022 ± 0.06; D -0.626 ± 0.075; Q -0.756 ± 0.17; T -0.798 ± 0.12; G -0.761 ± 0.038; F -0.221 ± 0.078; V -0.82 ± 0.052; M -0.839 ± 0.08; E -0.643 ± 0.062; P -0.615 ± 0.084; L -0.577 ± 0.054; H -0.597 ± 0.096; R -0.913 ± 0.056; N -0.807 ± 0.09; S -0.718 ± 0.058; K -0.861 ± 0.1
L41: I -0.139 ± 0.11; G -0.932 ± 0.049; K -0.576 ± 0.075; W -1.06 ± 0.074; Q -0.225 ± 0.07; S -0.228 ± 0.061; H -0.8 ± 0.13; Y -0.507 ± 0.25; R -0.57 ± 0.054; A -0.165 ± 0.061; N -0.609 ± 0.29; T -0.241 ± 0.065; V -0.345 ± 0.042; M -0.066 ± 0.074; D -0.613 ± 0.079; P -0.846 ± 0.093; E -0.388 ± 0.061; C -0.219 ± 0.093; F -0.362 ± 0.14
N39: F -0.061 ± 0.1; T -0.038 ± 0.065; C -0.138 ± 0.11; L -0.122 ± 0.049; E -0.037 ± 0.057; R -0.058 ± 0.037; Q -0.015 ± 0.058; I -0.147 ± 0.12; H -0.106 ± 0.11; Y -0.075 ± 0.082; A -0.037 ± 0.042; D -0.021 ± 0.28; K -0.087 ± 0.097; V -0.166 ± 0.054; P -0.608 ± 0.066; W -0.203 ± 0.046; S -0.054 ± 0.046; M -0.071 ± 0.071
A47: G -0.098 ± 0.052; I -0.184 ± 0.15; P -0.695 ± 0.082; S -0.046 ± 0.063; Q -0.005 ± 0.054; R -0.047 ± 0.05; K -0.029 ± 0.063; D -0.291 ± 0.17; C -0.156 ± 0.13; H -0.295 ± 0.2; L -0.064 ± 0.047; E -0.039 ± 0.086; F -0.11 ± 0.26; N -0.297 ± 0.23; T -0.138 ± 0.11; Y -0.122 ± 0.15
K44: L -0.108 ± 0.043; P -0.037 ± 0.051; W -0.09 ± 0.053; E -0.021 ± 0.064; V -0.034 ± 0.04; M -0.096 ± 0.056; T -0.023 ± 0.059; S 0.003 ± 0.041; H -0.121 ± 0.12; C -0.126 ± 0.083; I -0.159 ± 0.081; R -0.139 ± 0.035; D 0.059 ± 0.087
R36: V -0.05 ± 0.052; W -0.182 ± 0.058
M37: L -0.062 ± 0.041; G -0.32 ± 0.036; C -0.193 ± 0.1; Q -0.237 ± 0.088; F -0.239 ± 0.15; I -0.235 ± 0.14; Y -0.12 ± 0.055; T -0.212 ± 0.07; S -0.225 ± 0.058; K -0.296 ± 0.087; P -1.1 ± 0.092; D -0.422 ± 0.14; R -0.147 ± 0.041; V -0.382 ± 0.044; A -0.095 ± 0.06; E -0.094 ± 0.056; H -0.267 ± 0.12; N -0.305 ± 0.19
A54: I -0.142 ± 0.084; Y -0.075 ± 0.075; L -0.056 ± 0.047; P -0.267 ± 0.075; E -0.063 ± 0.088; K -0.014 ± 0.054; H -0.014 ± 0.13; D 0.006 ± 0.13; W -0.199 ± 0.059; R -0.031 ± 0.037; Q -0.102 ± 0.068; C -0.051 ± 0.1; N -0.033 ± 0.099; T -0.04 ± 0.054; S -0.071 ± 0.059; M -0.098 ± 0.084; V -0.003 ± 0.052; F -0.181 ± 0.089
E53: R -0.389 ± 0.051; I -0.356 ± 0.15; F -0.186 ± 0.068; H -0.152 ± 0.091; Q -0.146 ± 0.074; T -0.211 ± 0.064; C -0.086 ± 0.11; G -0.142 ± 0.081; V -0.078 ± 0.051; N -0.37 ± 0.36; L -0.183 ± 0.056; S -0.13 ± 0.056; Y -0.122 ± 0.091; M -0.164 ± 0.07; D -0.123 ± 0.076; W -0.133 ± 0.074; A -0.056 ± 0.072; K -0.366 ± 0.083
A51: D -0.102 ± 0.06; Y -0.097 ± 0.18; H -0.142 ± 0.12; I -0.148 ± 0.075; M -0.059 ± 0.074; S -0.066 ± 0.052; C -0.166 ± 0.094; W -0.219 ± 0.082; K -0.052 ± 0.086; G -0.101 ± 0.047; F -0.079 ± 0.07; Q -0.053 ± 0.082; L -0.042 ± 0.051; P -0.374 ± 0.094; V -0.059 ± 0.051; E -0.033 ± 0.082
D40: T -0.202 ± 0.078; E -0.058 ± 0.054; M -0.044 ± 0.08; C -0.213 ± 0.077; R -0.237 ± 0.039; H -0.257 ± 0.21; G -0.094 ± 0.038; F -0.135 ± 0.13; L -0.105 ± 0.052; P -0.911 ± 0.09; Q -0.036 ± 0.081; S -0.107 ± 0.064; I -0.763 ± 0.27; W -0.319 ± 0.056; K -0.15 ± 0.084; A -0.143 ± 0.06; N -0.265 ± 0.087; V -0.188 ± 0.05
A55: K -0.054 ± 0.087; I -0.126 ± 0.1; D -0.039 ± 0.12; E 0.058 ± 0.073; Y -0.149 ± 0.14; R -0.058 ± 0.061; N -0.141 ± 0.18; H 0.003 ± 0.17; S -0.065 ± 0.056; W -0.13 ± 0.064; T -0.062 ± 0.063; C -0.028 ± 0.08; M -0.047 ± 0.091; P -0.132 ± 0.093; F 0.059 ± 0.17; V -0.025 ± 0.072; G -0.046 ± 0.072
L56: C -0.164 ± 0.12; F -0.076 ± 0.081; E -0.045 ± 0.055; G -0.072 ± 0.042; P -0.156 ± 0.066; N -0.157 ± 0.13; D -0.078 ± 0.074; A -0.023 ± 0.055; M -0.145 ± 0.086; I 0.004 ± 0.063; K -0.082 ± 0.051; H -0.05 ± 0.11
K50: Y -0.074 ± 0.22; W -0.134 ± 0.059; C -0.049 ± 0.099; S -0.131 ± 0.053; M -0.096 ± 0.083; I 0.005 ± 0.11; D -0.189 ± 0.1; P -0.65 ± 0.077; H -0.036 ± 0.13; V -0.038 ± 0.064; G -0.251 ± 0.074; Q -0.016 ± 0.079; R -0.032 ± 0.055; E -0.017 ± 0.08; A -0.138 ± 0.076; F 0.002 ± 0.11
E43: S -0.213 ± 0.17; V -0.207 ± 0.11; L -0.205 ± 0.083; R -0.329 ± 0.064; P -0.592 ± 0.34; W -0.276 ± 0.072; D -0.367 ± 0.29; G -0.231 ± 0.073; A -0.001 ± 0.099
K46: M -0.336 ± 0.07; Y -0.748 ± 0.084; A -0.311 ± 0.045; Q -0.112 ± 0.068; C -0.537 ± 0.095; H -0.662 ± 0.21; F -0.785 ± 0.12; R -0.069 ± 0.04; E -0.708 ± 0.065; P -0.772 ± 0.1; D -0.896 ± 0.11; V -0.3 ± 0.043; G -0.806 ± 0.045; L -0.453 ± 0.046; T -0.393 ± 0.089; S -0.569 ± 0.069; W -0.736 ± 0.066
K48: R -0.047 ± 0.05; L -0.11 ± 0.051; G -0.07 ± 0.052; H -0.213 ± 0.35; Y -0.209 ± 0.18; I -0.264 ± 0.36; T -0.005 ± 0.053; W -0.094 ± 0.061; A 0.001 ± 0.053; M -0.022 ± 0.056; C -0.081 ± 0.15; S -0.048 ± 0.052; V -0.101 ± 0.055; F -0.066 ± 0.067; D 0.024 ± 0.13; N 0.029 ± 0.18; P -0.009 ± 0.074; E 0.104 ± 0.24; Q -0.091 ± 0.18
S42: R -0.698 ± 0.062; T -0.078 ± 0.049; L -0.661 ± 0.052; E -0.121 ± 0.075; K -0.294 ± 0.061; M -0.654 ± 0.069; G -0.082 ± 0.05; V -0.427 ± 0.036; N -0.147 ± 0.13; H -0.179 ± 0.22; A -0.115 ± 0.058; Q -0.288 ± 0.068; Y -0.619 ± 0.099; D 0.002 ± 0.1; P -0.081 ± 0.059; I -0.56 ± 0.097; C -0.155 ± 0.095; W -1.06 ± 0.091
W38: E -0.49 ± 0.057; Q -0.701 ± 0.094; L -0.985 ± 0.07; R -1.01 ± 0.048; A -0.892 ± 0.065; P -0.737 ± 0.084; H -0.803 ± 0.11; Y -0.151 ± 0.17; I -0.867 ± 0.14; M -1.06 ± 0.08; N -1.07 ± 0.22; K -0.787 ± 0.12; G -0.667 ± 0.041; D -0.456 ± 0.099; C -0.98 ± 0.092; S -0.732 ± 0.054
